{
  "source": "patent US20200231656A1",
  "about": "(UNIVERSIT T HEIDELBERG, published 2020)",
  "key": {"[1]": {"biological_target": "T1, norovirus GII.10 VLPs (full-length capsid protein VP1, virus-like particles) (norovirus GII.10 (Vietnam026))", "T1 chain": "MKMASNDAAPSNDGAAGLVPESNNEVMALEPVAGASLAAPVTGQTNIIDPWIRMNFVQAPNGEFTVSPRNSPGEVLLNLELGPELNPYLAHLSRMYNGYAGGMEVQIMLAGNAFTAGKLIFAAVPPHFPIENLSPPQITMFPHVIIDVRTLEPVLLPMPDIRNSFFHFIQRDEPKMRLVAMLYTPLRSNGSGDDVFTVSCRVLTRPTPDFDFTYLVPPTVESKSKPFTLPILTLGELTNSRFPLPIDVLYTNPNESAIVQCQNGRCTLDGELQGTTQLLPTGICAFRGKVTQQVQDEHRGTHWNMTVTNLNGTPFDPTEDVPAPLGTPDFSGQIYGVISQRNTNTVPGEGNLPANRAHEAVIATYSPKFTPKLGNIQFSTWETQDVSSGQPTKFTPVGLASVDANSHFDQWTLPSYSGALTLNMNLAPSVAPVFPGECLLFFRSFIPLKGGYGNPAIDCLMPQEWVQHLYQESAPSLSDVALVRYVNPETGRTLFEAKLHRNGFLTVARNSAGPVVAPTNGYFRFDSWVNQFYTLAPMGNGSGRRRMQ"}, "[2]": {"biological_target": "T2, norovirus GII.4 2006 VLPs (full-length capsid protein VP1, virus-like particles) (norovirus GII.4 (Saga4 2006))", "T2 construct": "mature; also called GII.4 VLPs", "experiment": "blocking ELISA: GII.4 VLPs pretreated with Nano-26, binding to coated PGM"}},
  "note": "Where “and” joins values, the source holds several entries; their conditions need not be identical. Equal values may be shown once.",
  "data": [
    {"binder": "Nano-26 (VHH, also called Nanobody Nano-26; N26; not shown: His-tag implied by detection with an anti-His-tag antibody (pHEN6C vector); its) VHH: QVQLQESGGGLVQPGGSLRLSCTAPRIIFFMYDVGWYRQAPEKQRELVAQINSDVSTKYADSVKGRFTISRDNAKRTVYLQMNDLKPEDAAVYYCNVRRASADYWGQGTQVTVSS", "values": [
      {"measurement": "IC50", "setting": "[1]", "result": "6.6 mg/L and 3.1 mg/L and 2.6 mg/L and 4.3 mg/L"},
      {"measurement": "IC50", "setting": "[2]", "result": 2.4, "unit": "mg/L"}
    ]}
  ]
}
